Test results: patent publication US20050079613A1, “Downregulation of cell surface glycoproteins by a family of human ubiquitin ligases” (Oregon Health & Science University, priority 2002, published 2005)

Tested on: Fas (CD95), MHC I, HLA-A2.1, CD4, transferrin receptor, B7.1
Assay: Surface glycoprotein panel on transfected HeLa cells, flow cytometry
Assay type: cell-based, human
Conditions: HeLa cells transfected with MARCH plasmid
Method: Flow cytometry. Cells were removed from tissue culture dishes with 0.05% Trypsin-EDTA (Invitrogen), washed with ice-cold PBS, and incubated with appropriate antibody for 30 minutes at 4° C. The cells were washed with ice-cold PBS and either resuspended in ice-cold PBS or incubated with PE-conjugated anti-mouse secondary antibody (DAKO) and washed again before analysis with a BD Biosciences (San Jose, Calif.) FACScalibur flow cytometer.
The ability to downregulate MHC I is common to KSHV-K3, KSHV-K5, MHV68-K3 and MV-M153R (Coscoy and Ganem, 2000, supra; Guerin et al., 2002, supra; Ishido et al., 2000b supra; Stevenson et al., 2000, supra). Additional substrates are ICAM-1 and B7.2 (but not B7.1) for KSHV-K5, as well as CD95 and CD4 for M153R (Coscoy and Ganem, 2001, supra; Guerin et al., 2002, supra; Ishido et al., 2000a, supra; Mansouri et al., 2003, supra). Since only low copy numbers were detected in HeLa cells for transcripts corresponding to each of the MARCH-proteins (FIG. 7C, and data not shown), HeLa cells were transfected with expression plasmids for MARCH-I, II, III, IV, V and VIII. Surface expression of selected glycoproteins was monitored upon transfection. […] Surface expression of the respective markers was analyzed by flow cytometry. […]

B1: MARCH-V: four-transmembrane human RING-CH protein, SEQ ID NOS:47 and 58 (protein, listed as Homo sapiens)
chain: MPDQALQQMLDRSCWVCFATDEDDRTAEWVRPCRCRGSTKWVHQACLQRWVDEKQRGNSTARVACPQCNAEYLIVFPKLGPVVYVLDLADRLISKACPFAAAGIMVGSIYWTAVTYGAVTVMQVVGHKEGLDVMERADPLFLLIGLPTIPVMLILGKMIRWEDYVLRLWRKYSNKLQILNSIFPGIGCPVPRIPAEANPLADHVSATRILCGALVFPTIATIVGKLMFSSVNSNLQRTILGGIAFVAIKGAFKVYFKQQQYLRQAHRKILNYPEQEEA
In the case of B1, the “reduction in surface levels of any of the glycoproteins of the panel” value is reported as “No reduction in surface levels”.
